From patent US20120100139A1 (APTEVO RESEARCH AND DEVELOPMENT, published 2012)
Each block holds one binder with its values, some of them ahead of it.

Columns and labels:
[1] = target: T1, CD86-mIgG (Ancell, Inc) (UniProt P42081 24-247, limits assumed); test: SPR, CD86-mIgG immobilized; reference of the comparison
T1 construct: Bought reagent
T1 sequence (looked up): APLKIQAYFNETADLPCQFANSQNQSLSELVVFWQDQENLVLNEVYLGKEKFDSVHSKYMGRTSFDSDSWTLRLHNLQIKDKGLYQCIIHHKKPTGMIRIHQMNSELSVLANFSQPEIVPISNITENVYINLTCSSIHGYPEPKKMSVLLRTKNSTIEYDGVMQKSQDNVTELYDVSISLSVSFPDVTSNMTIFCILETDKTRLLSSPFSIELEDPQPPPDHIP

[2] = target: T2, CD86 on cells (WIL2-S human B-lymphoblastoid cells; HuCD86-2A2 CHO cells expressing CD86) (human, UniProt P42081 24-329); test: flow cytometry on WIL2-S cells
T2 construct: whole, on cells; also called cell surface CD86
T2 sequence (looked up): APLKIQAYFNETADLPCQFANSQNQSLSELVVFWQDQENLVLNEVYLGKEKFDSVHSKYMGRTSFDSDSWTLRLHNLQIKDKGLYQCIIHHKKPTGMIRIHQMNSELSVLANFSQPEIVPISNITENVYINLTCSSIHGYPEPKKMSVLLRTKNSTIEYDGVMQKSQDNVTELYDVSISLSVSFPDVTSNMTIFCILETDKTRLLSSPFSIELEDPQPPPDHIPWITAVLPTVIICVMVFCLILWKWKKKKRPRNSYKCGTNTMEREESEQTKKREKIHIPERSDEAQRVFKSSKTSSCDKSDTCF
Experimental: (§1) Briefly, WIL2-S or HuCD86-2A2 cells were incubated with test molecules containing a CD86 antagonist at concentrations ranging from saturation to background levels. […] After the incubation, cells were washed and a fluorophore (R-phycoerythrin) tagged F(Ab′)₂ antibody specific for the Fc portion of the xceptor molecule, IL10R-Ig fusion protein, or anti-IL10 antibody. The tagged cells were then passed through a flow cytometer and data was analyzed by plotting median fluorescence intensity of each sample.

[3] = target: T2, CD86 on cells (WIL2-S human …); test: flow cytometry, HEK293 supernatants on HuCD86-2A2 cells
Experimental: as §1
In another experiment, different versions of humanized FUN1 SMIPs were tested for CD86 binding. Supernatants of HEK293 cells transiently transfected with the six different versions of humanized FUN1 SMIPs were examined for CD86 binding using HuCD86-2A2 cells.

binding result [1]: binds | binding result [2]: binds
B1: FUN1::IL10 xceptor (Fc fusion)
chain: EVQLQQSGPELEKPGASVKISCKASGYSFTDYNMNWVKQSNGKSLEWIGNIDPYYGGTSYNQKFKGKATLTVDKSSSTAYMQLNSLTSEDSAVYFCARWDYRYDDGRAYYVMDFWGQGTSVTVSSGGGGSGGGGSGGGGSGGGGSELQMTQSPSSLAASAGEKVTMSCKSSQSVLYSSNQKNYLAWYQQKPGQSPKLLIYWASTRESGVPDRFTGSGSGTHFTLTVSSVQAEDLAVYYCHQYLYSWTFGGGTNLEIKRLEPKSSDKTHTCPPCPAPEAAGAPSVFLFPPKPKDTLMISRTPEVTCVVVDVSHEDPEVKFNWYVDGVEVHNAKTKPREEQYNSTYRVVSVLTVLHQDWLNGKAYACAVSNKALPAPIEKTISKAKGQPREPQVYTLPPSRDELTKNQVSLTCLVKGFYPSDIAVEWESNGQPENNYKTTPPVLDSDGSFFLYSKLTVDKSRWQQGNVFSCSVMHEALHNHYTQKSLSLSPGNSLFNQEVQIPLTESYSPNSSPGQGTQSENSCTHFPGNLPNMLRDLRDAFSRVKTFFQMKDQLDNLLLKESLLEDFKGYLGCQALSEMIQFYLEEVMPQAENQDPDIKAHVNSLGENLKTLRLRLRRCHRFLPCENKSKAVEQVKNAFNKLQEKGIYKAMSEFDIFINYIEAYMTMKIRN
notes: anti-CD86 FUN1 scFv - Fc - IL10

binding result [3]: binds
B2: FUN1-22 humanized FUN1 SMIP (Fc fusion)
chain: QVQLVQSGAEVKKPGASVKVSCKASGYTFTDYNMNWVRQAPGQGLEWMGNIDPYYGGTSYNQKFKGRVTMTRDTSISTAYMELSRLRSDDTAVYYCARWDYRYDDGRAYYVMDFWGQGTTVTVSSGGGGSGGGGSGGGGSGGGGSDIQMTQSPSSLSASVGDRVTITCKSSQSVLYSSNQKNYLAWYQQKPGKVPKLLIYWASTRESGVPSRFSGSGSGTDFTLTISSLQPEDVATYYCHQYLYSWTFGQGTKLEIKRLEPKSSDKTHTCPPCPAPEAAGAPSVFLFPPKPKDTLMISRTPEVTCVVVDVSHEDPEVKFNWYVDGVEVHNAKTKPREEQYNSTYRVVSVLTVLHQDWLNGKAYACAVSNKALPAPIEKTISKAKGQPREPQVYTLPPSRDELTKNQVSLTCLVKGFYPSDIAVEWESNGQPENNYKTTPPVLDSDGSFFLYSKLTVDKSRWQQGNVFSCSVMHEALHNHYTQKSLSLSPG
notes: SMIP: scFv-hinge-Fc single chain
